Data on four proteins can be found in paper PMC6007550 (Nucleic Acids Research, 2018).

What is called stoichiometry N is a count of units in the complex or per binding partner.

The labels stand for the following.
B1: Sin R54E/I113V catalytic domain (residues 1-128) (domain or fragment, UniProt P20384 1-128, looked up)
chain: MIIGYARVSSLDQNLERQLENLKTFGAEKIFTEKQSGKSIENRPILQKALNFVEMGDRFIVESIDRLGRNYNEVIHTVNYLKDKEVQLMITSLPMMNEVIGNPLLDKFMKDLVIQILAMVSEQERNES
modifications: selenomethionine in place of methionine
B2: Sin R54E/I100T catalytic domain (residues 1-128) (domain or fragment, UniProt P20384 1-128, looked up)
chain: MIIGYARVSSLDQNLERQLENLKTFGAEKIFTEKQSGKSIENRPILQKALNFVEMGDRFIVESIDRLGRNYNEVIHTVNYLKDKEVQLMITSLPMMNEVTGNPLLDKFMKDLIIQILAMVSEQERNES
modifications: selenomethionine in place of methionine
B3: Sin R54E/T77I/I100T/Q115R catalytic domain (residues 1-128) (domain or fragment, UniProt P20384 1-128, looked up)
chain: MIIGYARVSSLDQNLERQLENLKTFGAEKIFTEKQSGKSIENRPILQKALNFVEMGDRFIVESIDRLGRNYNEVIHIVNYLKDKEVQLMITSLPMMNEVTGNPLLDKFMKDLIIRILAMVSEQERNES
modifications: selenomethionine in place of methionine
B4: Sin R54E/I100T/Q115R catalytic domain (residues 1-128) (domain or fragment, UniProt P20384 1-128, looked up)
chain: MIIGYARVSSLDQNLERQLENLKTFGAEKIFTEKQSGKSIENRPILQKALNFVEMGDRFIVESIDRLGRNYNEVIHTVNYLKDKEVQLMITSLPMMNEVTGNPLLDKFMKDLIIRILAMVSEQERNES
modifications: selenomethionine in place of methionine

This series concerns the molecule itself. The experiment in a line: crystal structure.
Turning to B1, the “stoichiometry N” value was 4.

Turning to B2, the “stoichiometry N” value came to 4.

As for B3, the “stoichiometry N” value was 4.

With B4, the “stoichiometry N” value was 4.
